From patent US20240010721A1 (HARBOUR BIOMED SHANGHAI, published 2024)
Where a chain is given by its changes, count along the chain named. Names may count otherwise. Values belong to the binder of their own block, whether it stands above or below them.

Key:
[1] = target: T1, human ROR1 (hROR1) on cells (human, UniProt Q01973 30-937); test: FACS, Panc-1 cells; also: test concentration or dose not given here
T1 construct: whole, on cells; the cell line is named under assay; also called HEK293T-hROR1; 293T-hROR1
T1 sequence (Q01973 30-937): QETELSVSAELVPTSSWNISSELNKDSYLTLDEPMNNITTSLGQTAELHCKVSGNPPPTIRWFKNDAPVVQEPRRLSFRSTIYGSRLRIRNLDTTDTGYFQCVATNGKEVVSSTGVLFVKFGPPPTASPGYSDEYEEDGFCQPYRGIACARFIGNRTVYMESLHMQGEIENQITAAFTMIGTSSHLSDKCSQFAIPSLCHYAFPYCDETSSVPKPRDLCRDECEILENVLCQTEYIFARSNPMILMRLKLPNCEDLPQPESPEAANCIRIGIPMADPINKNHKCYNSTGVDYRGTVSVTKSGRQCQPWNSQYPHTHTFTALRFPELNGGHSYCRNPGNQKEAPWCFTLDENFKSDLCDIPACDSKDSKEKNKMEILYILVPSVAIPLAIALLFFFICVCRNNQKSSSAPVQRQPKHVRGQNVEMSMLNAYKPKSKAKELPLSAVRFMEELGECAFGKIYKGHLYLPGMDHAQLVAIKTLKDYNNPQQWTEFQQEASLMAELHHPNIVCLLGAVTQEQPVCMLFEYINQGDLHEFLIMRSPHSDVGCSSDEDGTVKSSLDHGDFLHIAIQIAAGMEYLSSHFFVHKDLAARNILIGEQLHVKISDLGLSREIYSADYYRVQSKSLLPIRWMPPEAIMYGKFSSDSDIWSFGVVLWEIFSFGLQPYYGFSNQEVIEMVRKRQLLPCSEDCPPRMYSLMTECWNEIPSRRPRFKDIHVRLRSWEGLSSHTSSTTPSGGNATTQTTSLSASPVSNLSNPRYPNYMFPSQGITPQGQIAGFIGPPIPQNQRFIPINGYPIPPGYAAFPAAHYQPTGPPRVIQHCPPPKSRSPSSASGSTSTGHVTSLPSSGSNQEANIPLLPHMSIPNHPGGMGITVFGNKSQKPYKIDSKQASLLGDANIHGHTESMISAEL

[2] = target: T1, human ROR1 (hROR1) on cells; test: FACS, HEK293T-hROR1 cells; also: test concentration or dose not given here
[3] = target: ROR1 (antigen of the KD determination and of the Octet dissociation measurement) (UniProt Q01973 30-403, limits assumed); test: Octet, antigen form not stated
Sequence of ROR1 (antigen of the KD determination and of the Octet dissociation measurement) (Q01973 30-403 limits assumed): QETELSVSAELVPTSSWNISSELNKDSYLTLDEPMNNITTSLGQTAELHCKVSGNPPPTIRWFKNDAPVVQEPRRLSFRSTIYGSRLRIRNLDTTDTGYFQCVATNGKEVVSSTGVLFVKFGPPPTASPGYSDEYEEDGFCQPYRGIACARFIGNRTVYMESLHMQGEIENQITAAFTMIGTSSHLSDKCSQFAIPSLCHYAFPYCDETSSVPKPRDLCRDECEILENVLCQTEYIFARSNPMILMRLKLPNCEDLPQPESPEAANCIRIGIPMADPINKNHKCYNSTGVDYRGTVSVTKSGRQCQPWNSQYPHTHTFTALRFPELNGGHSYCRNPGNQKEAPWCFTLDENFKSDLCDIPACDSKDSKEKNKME

MFI [1]: 5600 MFI
MFI [2]: 43900 MFI
Response [3]: 0.629
koff [3]: 0.000162 s⁻¹
B1: PR002562 (antibody, human IgG1, kappa, V domains shown)
VH: QVQLVQSGGGVVQPGRSLRLSCAASGFTFSSYGMHWVRQAPGKGLEWVAIMWYDGSDKDYADSVKGRFTISRDTSKNTLYLQMNSLRAEDTAVYYCAREQARSFDLWGRGTLVTVSS
VL: DIVMTQSPSSLSASVGDRVTITCRASQTINNWLAWYQQKPGKAPKLLIYKASSLESGVPSRFSGSGSGTEFTLTISSLQPDDFATYYCQQYQSYSPMYTFGQGTKVEIKR
notes: PR001354 variant: VL N92Q; hIgG1; also called anti-ROR1 1015M2-C9(L: N92Q) hIgG1

MFI [1]: 3760 MFI
MFI [2]: 34500 MFI
Response [3]: 0.614
koff [3]: 0.000207 s⁻¹
B2: PR002569 (antibody, human IgG1, kappa, V domains shown)
VH: B1 VH with G55A
VL: B1 VL with Q92N, S93A
notes: PR001354 variant: VH G55A, VL S93A; hIgG1; also called anti-ROR1 1015M2-C9(H: G55A; L: S93A) hIgG1

MFI [1]: 4560 MFI
MFI [2]: 49600 MFI
Response [3]: 0.638
koff [3]: 0.000113 s⁻¹
B3: PR002571 (antibody, human IgG1, kappa, V domains shown)
VH: B1 VH with Q6E, I50V, M51A, G55A, S56V, D57S, K58E, T74N, S75A
VL: B1 VL with S10T, T28S, Q92K
notes: PR001356 variant: VH G55A; hIgG1; also called anti-ROR1 1015M2-E6(H: G55A) hIgG1

MFI [1]: 6490 MFI
MFI [2]: 44200 MFI
Response [3]: 0.244
koff [3]: 0.000601 s⁻¹
B4: PR002577 (antibody, human IgG1, kappa, V domains shown)
VH: B1 VH with Q1E, V5L, Q6E, Y32F, I50V, M51I, G55A
VL: B1 VL with S10T, Q92N
notes: PR001364 variant: VH G55A; hIgG1; also called anti-ROR1 1015M3-D8(H: G55A) hIgG1

MFI [1]: 3180 MFI
MFI [2]: 42300 MFI
Response [3]: 0.974
koff [3]: 6.73e-05 s⁻¹
B5: PR002581 (antibody, human IgG1, kappa, V domains shown)
VH: B1 VH with Q6E, S31N, M34I, D57N, K58T, Y80F
VL: B1 VL with S10T, Q92N, S93A
notes: PR001369 variant: VL S93A; hIgG1; also called anti-ROR1 1015M3-H10(L: S93A) hIgG1

MFI [1]: 3620 MFI
MFI [2]: 46300 MFI
Response [3]: 0.702
koff [3]: 0.00014 s⁻¹
B6: PR002568 (antibody, human IgG1, kappa, V domains shown)
VH: B1 VH with G55A
VL: B1 VL
notes: PR001354 variant: VH G55A, VL N92Q; hIgG1; also called anti-ROR1 1015M2-C9(H: G55A; L: N92Q) hIgG1

MFI [1]: 4630 MFI
MFI [2]: 43300 MFI
Response [3]: 0.663
koff [3]: 0.000135 s⁻¹
B7: PR002566 (antibody, human IgG1, kappa, V domains shown)
VH: B1 VH with D54E
VL: B1 VL with Q92N, S93A
notes: PR001354 variant: VH D54E, VL S93A; hIgG1; also called anti-ROR1 1015M2-C9(H: D54E; L: S93A) hIgG1

MFI [1]: 2610 MFI
MFI [2]: 32700 MFI
Response [3]: 0.771
koff [3]: 0.000389 s⁻¹
B8: PR002585 (antibody, human IgG1, kappa, V domains shown)
VH: B1 VH with Q6E, S31N, M34I, G55A, D57N, K58T, Y80F
VL: B1 VL with S10T, Q92N
notes: PR001369 variant: VH G55A; hIgG1; also called anti-ROR1 1015M3-H10(H: G55A) hIgG1

MFI [1]: 5870 MFI
MFI [2]: 45300 MFI
Response [3]: 0.485
koff [3]: 0.000172 s⁻¹
B9: PR002574 (antibody, human IgG1, kappa, V domains shown)
VH: B1 VH with Q1E, V5L, Q6E, Y32F, I50V, M51I, D54E
VL: B1 VL with S10T, Q92N
notes: PR001364 variant: VH D54E; hIgG1; also called anti-ROR1 1015M3-D8(H: D54E) hIgG1

MFI [1]: 3250 MFI
MFI [2]: 33800 MFI
Response [3]: 0.828
koff [3]: 0.000112 s⁻¹
B10: PR002575 (antibody, human IgG1, kappa, V domains shown)
VH: B1 VH with Q1E, V5L, Q6E, Y32F, I50V, M51I, D54E
VL: B1 VL with S10T
notes: PR001364 variant: VH D54E, VL N92Q; hIgG1; also called anti-ROR1 1015M3-D8(H: D54E; L: N92Q) hIgG1

MFI [1]: 3180 MFI
MFI [2]: 36600 MFI
Response [3]: 0.69
koff [3]: 0.000301 s⁻¹
B11: PR002584 (antibody, human IgG1, kappa, V domains shown)
VH: B1 VH with Q6E, S31N, M34I, D54E, D57N, K58T, Y80F
VL: B1 VL with S10T, Q92N, S93A
notes: PR001369 variant: VH D54E, VL S93A; hIgG1; also called anti-ROR1 1015M3-H10(H: D54E; L: S93A) hIgG1

MFI [1]: 2950 MFI
MFI [2]: 41500 MFI
Response [3]: 0.756
koff [3]: 0.000394 s⁻¹
B12: PR002587 (antibody, human IgG1, kappa, V domains shown)
VH: B1 VH with Q6E, S31N, M34I, G55A, D57N, K58T, Y80F
VL: B1 VL with S10T, Q92N, S93A
notes: PR001369 variant: VH G55A, VL S93A; hIgG1; also called anti-ROR1 1015M3-H10(H: G55A; L: S93A) hIgG1

MFI [1]: 6590 MFI
MFI [2]: 43200 MFI
Response [3]: 0.748
koff [3]: 0.000108 s⁻¹
B13: PR002564 (antibody, human IgG1, kappa, V domains shown)
VH: B1 VH with D54E
VL: B1 VL with Q92N
notes: PR001354 variant: VH D54E; hIgG1; also called anti-ROR1 1015M2-C9(H: D54E) hIgG1

MFI [1]: 7030 MFI
MFI [2]: 41900 MFI
Response [3]: 0.707
koff [3]: 0.000215 s⁻¹
B14: PR002567 (antibody, human IgG1, kappa, V domains shown)
VH: B1 VH with G55A
VL: B1 VL with Q92N
notes: PR001354 variant: VH G55A; hIgG1; also called anti-ROR1 1015M2-C9(H: G55A) hIgG1

MFI [1]: 3720 MFI
MFI [2]: 42500 MFI
Response [3]: 0.985
koff [3]: 4.75e-05 s⁻¹
B15: PR002580 (antibody, human IgG1, kappa, V domains shown)
VH: B1 VH with Q6E, S31N, M34I, D57N, K58T, Y80F
VL: B1 VL with S10T
notes: PR001369 variant: VL N92Q; hIgG1; also called anti-ROR1 1015M3-H10(L: N92Q) hIgG1

MFI [1]: 1990 MFI
MFI [2]: 32300 MFI
Response [3]: 0.798
koff [3]: 0.000193 s⁻¹
B16: PR002582 (antibody, human IgG1, kappa, V domains shown)
VH: B1 VH with Q6E, S31N, M34I, D54E, D57N, K58T, Y80F
VL: B1 VL with S10T, Q92N
notes: PR001369 variant: VH D54E; hIgG1; also called anti-ROR1 1015M3-H10(H: D54E) hIgG1

MFI [1]: 5490 MFI
MFI [2]: 41900 MFI
Response [3]: 0.754
koff [3]: 0.000266 s⁻¹
B17: PR002586 (antibody, human IgG1, kappa, V domains shown)
VH: B1 VH with Q6E, S31N, M34I, G55A, D57N, K58T, Y80F
VL: B1 VL with S10T
notes: PR001369 variant: VH G55A, VL N92Q; hIgG1; also called anti-ROR1 1015M3-H10(H: G55A; L: N92Q) hIgG1

MFI [1]: 3710 MFI
MFI [2]: 37200 MFI
Response [3]: 0.723
koff [3]: 8.84e-05 s⁻¹
B18: PR002573 (antibody, human IgG1, kappa, V domains shown)
VH: B1 VH with Q1E, V5L, Q6E, Y32F, I50V, M51I
VL: B1 VL with S10T, Q92N, S93A
notes: PR001364 variant: VL S93A; hIgG1; also called anti-ROR1 1015M3-D8(L: S93A) hIgG1

MFI [1]: 5020 MFI
MFI [2]: 43800 MFI
Response [3]: 0.757
koff [3]: 0.000122 s⁻¹
B19: PR002563 (antibody, human IgG1, kappa, V domains shown)
VH: B1 VH
VL: B1 VL with Q92N, S93A
notes: PR001354 variant: VL S93A; hIgG1; also called anti-ROR1 1015M2-C9(L: S93A) hIgG1

MFI [1]: 3950 MFI
MFI [2]: 25300 MFI
Response [3]: 0.672
koff [3]: 0.000223 s⁻¹
B20: PR002583 (antibody, human IgG1, kappa, V domains shown)
VH: B1 VH with Q6E, S31N, M34I, D54E, D57N, K58T, Y80F
VL: B1 VL with S10T
notes: PR001369 variant: VH D54E, VL N92Q; hIgG1; also called anti-ROR1 1015M3-H10(H: D54E; L: N92Q) hIgG1

MFI [1]: 6700 MFI
MFI [2]: 45100 MFI
Response [3]: 0.414
koff [3]: 0.000322 s⁻¹
B21: PR002578 (antibody, human IgG1, kappa, V domains shown)
VH: B1 VH with Q1E, V5L, Q6E, Y32F, I50V, M51I, G55A
VL: B1 VL with S10T
notes: PR001364 variant: VH G55A, VL N92Q; hIgG1; also called anti-ROR1 1015M3-D8(H: G55A; L: N92Q) hIgG1

MFI [1]: 3930 MFI
MFI [2]: 43000 MFI
Response [3]: 0.606
koff [3]: 0.000104 s⁻¹
B22: PR002572 (antibody, human IgG1, kappa, V domains shown)
VH: B1 VH with Q1E, V5L, Q6E, Y32F, I50V, M51I
VL: B1 VL with S10T
notes: PR001364 variant: VL N92Q; hIgG1; also called anti-ROR1 1015M3-D8(L: N92Q) hIgG1

MFI [1]: 2470 MFI
MFI [2]: 40200 MFI
Response [3]: 0.866
koff [3]: 9.83e-05 s⁻¹
B23: PR002576 (antibody, human IgG1, kappa, V domains shown)
VH: B1 VH with Q1E, V5L, Q6E, Y32F, I50V, M51I, D54E
VL: B1 VL with S10T, Q92N, S93A
notes: PR001364 variant: VH D54E, VL S93A; hIgG1; also called anti-ROR1 1015M3-D8(H: D54E; L: S93A) hIgG1

MFI [1]: 7050 MFI
MFI [2]: 43100 MFI
Response [3]: 0.783
koff [3]: 0.000199 s⁻¹
B24: PR002579 (antibody, human IgG1, kappa, V domains shown)
VH: B1 VH with Q1E, V5L, Q6E, Y32F, I50V, M51I, G55A
VL: B1 VL with S10T, Q92N, S93A
notes: PR001364 variant: VH G55A, VL S93A; hIgG1; also called anti-ROR1 1015M3-D8(H: G55A; L: S93A) hIgG1

MFI [1]: 3660 MFI
MFI [2]: 43100 MFI
Response [3]: 0.472
koff [3]: 0.00108 s⁻¹
B25: PR002570 (antibody, human IgG1, kappa, V domains shown)
VH: B1 VH with Q6E, I50V, M51A, D54E, S56V, D57S, K58E, T74N, S75A
VL: B1 VL with S10T, T28S, Q92K
notes: PR001356 variant: VH D54E; hIgG1; also called anti-ROR1 1015M2-E6(H: D54E) hIgG1

MFI [1]: 6820 MFI
MFI [2]: 46900 MFI
Response [3]: 0.595
koff [3]: 0.000106 s⁻¹
B26: PR002565 (antibody, human IgG1, kappa, V domains shown)
VH: B1 VH with D54E
VL: B1 VL
notes: PR001354 variant: VH D54E, VL N92Q; hIgG1; also called anti-ROR1 1015M2-C9(H: D54E; L: N92Q) hIgG1
